Data reported in IntAct's records for PubMed 19150989.

B1: BBSome complex member BBS1 (Homo sapiens), Q8NFJ9 (parent)
chain: MAAASSSDSDACGAESNEANSKWLDAHYDPMANIHTFSACLALADLHGDGEYKLVVGDLGPGGQQPRLKVLKGPLVMTESPLPALPAAAATFLMEQHEPRTPALALASGPCVYVYKNLRPYFKFSLPQLPPNPLEQDLWNQAKEDRIDPLTLKEMLESIRETAEEPLSIQSLRFLQLELSEMEAFVNQHKSNSIKRQTVITTMTTLKKNLADEDAVSCLVLGTENKELLVLDPEAFTILAKMSLPSVPVFLEVSGQFDVEFRLAAACRNGNIYILRRDSKHPKYCIELSAQPVGLIRVHKVLVVGSTQDSLHGFTHKGKKLWTVQMPAAILTMNLLEQHSRGLQAVMAGLANGEVRIYRDKALLNVIHTPDAVTSLCFGRYGREDNTLIMTTRGGGLIIKILKRTAVFVEGGSEVGPPPAQAMKLNVPRKTRLYVDQTLREREAGTAMHRAFQTDLYLLRLRAARAYLQALESSLSPLSTTAREPLKLHAVVQGLGPTFKLTLHLQNTSTTRPVLGLLVCFLYNEALYSLPRAFFKVPLLVPGLNYPLETFVESLSNKGISDIIKVLVLREGQSAPLLSAHVNMPGSEGLAAA

Variants of: B1
Conditions: with Lepr

Variant | effect of a mutation on the interaction
M390R | decreasing interaction
